From patent US6946588B2, “Nucleic acid encoding a modified threonine deaminase and methods of use” (Monsanto Technology LLC, priority 1996, dated 2005)
Read-outs that look alike come from different tables or passages of the source.

B1: BktB β-ketothiolase (Cupriavidus necator H16) (protein)
chain: TREVVVVSGVRTAIGTFGGSLKDVAPAELGALVVREALARAQVSGDDVGHVVFGNVIQTEPRDMYLGRVAAVNGGVTINAPALTVNRLCGSGLQAIVSAAQTILLGDTDVAIGGGAESMSRAPYLAPAARWGARMGDAGLVDMMLGALHDPFHRIHMGVTAENVAKEYDISRAQQDEAALESHRRASAAIKAGYFKDQIVPVVSKGRKGDVTFDTDEHVRHDATIDDMTKLRPVFVKENGTVTAGNASGLNDAAAAVVMMERAEAERRGLKPLARLVSYGHAGVDPKAMGIGPVPATKIALERAGLQVSDLDVIEANEAFAAQACAVTKALGLDPAKVNPNGSGISLGHPIGATGALITVKALHELNRVQGRYALVTMCIGGGQGIAAIFERI
B2: E. coli wild-type: wild-type E. coli biosynthetic threonine deaminase encoded by the ilvA gene (SEQ ID NO:1) (protein, listed as Escherichia coli)
chain: MADSQPLSGAPEGAEYLRAVLRAPVYEAAQVTPLQKMEKLSSRLDNVILVKREDRQPVHSFKLRGAYAMMAGLTEEQKAHGVITASAGNHAQGVAFSSARLGVKALIVMPTATADIKVDRLRGFGGEVLLHGANFDEAKRKAIELSQQQGFTWVPPFDHPMVIAGQGTLALELLQQDAHLDRVFVPVGGGGLAACVAVLIKQLMPQIKVIAVEAEDSACLKAALDAGHPVDLPRVGLFAEGVAVKRIGDETFRLCQEYLDDIITVDSDAICAAMKDLFEDVRAVAEPSGALALAGMKKYIALHNIRGERLAHILSGANVNFHGLRYVSERCELVEQREALLAVTIPEEKGSFLKFCQLLGGRSVTEFNYRFADAKNACIFVGVRLSRGLEERKEILQMLNDGGYSVVDLSDDEMAKLHVRYMVGGRPSHPLQERLYSFEFPESPGALLRFLNTLGTYWNISLFHYRSHGTDYGRVLAAFELGDHEPDFETRLNELGYDCHDETNNPAFRFFLAG
B3: E. coli L481F (protein)
chain: MADSQPLSGAPEGAEYLRAVLRAPVYEAAQVTPLQKMEKLSSRLDNVILVKREDRQPVHSFKLRGAYAMMAGLTEEQKAHGVITASAGNHAQGVAFSSARLGVKALIVMPTATADIKVDAVRGFGGEVLLHGANFDEAKAKAIELSQQQGFTWVPPFDHPMVIAGQGTLALELLQQDAHLDRVFVPVGGGGLAAGVAVLIKQLMPQIKVIAVEAEDSACLKAALDAGHPVDLPRVGLFAEGVAVKRIGDETFRLCQEYLDDIITVDSDAICAAMKDLFEDVRAVAEPSGALALAGMKKYIALHNIRGERLAHILSGANVNFHGLRYVSERCELGEQREALLAVTIPEEKGSFLKFCQLLGGRSVTEFNYRFADAKNACIFVGVRLSRGLEERKEILQMLNDGGYSVVDLSDDEMAKLHVRYMVGGRPSHPLQERLYSFEFPESPGALLRFLNTLGTYWNISLFHYRSHGTDYGRVLAAFEFGDHEPDFETRLNELGYDCHDETNNPAFRFFLAG

Tests used:
[1] = substrate: CC(C)(COP(=O)(O)OP(=O)(O)OC[C@H]1O[C@@H](n2cnc3c(N)ncnc32)[C@H](O)[C@@H]1OP(=O)(O)O)[C@@H](O)C(=O)NCCC(=O)NCCS; assay: purified protein, by the assay type; details: other: thiolysis, 25° C., β-ketocaproyl-CoA fixed at 60 μM
Protocol: To enhance further our understanding of the kinetic characteristics of BktB β-ketothiolase, a thorough kinetic analysis of the enzyme's thiolysis activity was conducted using purified protein. The assay to determine the kinetic parameters Km and Vmax for βketobutyryl-CoA (C4), β-ketovaleryl-CoA (C5), and β-ketocaproyl-CoA (C6), was performed at 25° C. by the in situ generation of the β-keto compounds from their corresponding trans-2,3-enoyl-CoAs essentially as described by Haywood et al. (1988). Utilization of variable substrate concentrations permitted the determination of the descriptive kinetic parameters of the β-ketothiolase.
The assay mixture (1 ml final volume) contained 150 mM EPPS, pH 8.0, 50 mM MgCl2, 1.5 mM pyruvate, 0.4 mM NAD+, and a coupling enzyme cocktail of three units crotonase, five units β-hydroxyacyl-CoA dehydrogenase, and 10 units lactic dehydrogenase. The enoyl-CoA was added to this mixture and the absorbance at 304 nm was monitored until it reached a plateau (typically about 5 min). CoA was added to this mixture, followed by BktB β-ketothiolase to initiate the reaction. The decrease in absorbance at 304 nm due to the thiolysis of the β-ketoacyl-CoA was utilized as a direct measure of activity. […] Reaction rates were calculated in the steady-state within the first minute following initiation. […]

soybean callus = assay: Expression and activity of E. coli IlvA in stably transformed soybean callus; format: cell-based; details: soybean calli 518-4, 518-15, 518-16, 518-17 transformed with pMON25668
Description: As shown above, the E. coli IlvA proteins can be functionally expressed in a plant transient expression system. In order to test the expression of a biosynthetic threonine deaminase in a stably transformed plant tissue, non-differentiating callus derived from soybean hypocotyl tissue was transformed with a plasmid containing the E. coli wild-type ilvA threonine deaminase gene using Agrobacterium tumefaciens ABI (Koncz and Schell, 1986).
Soybean callus tissue was transformed with binary Ti plasmid pMON25668 (FIG. 17). Plasmid pMON25668 contains the e35S-expressed, plastid-targeted (ARABSSU1A) E. coli wild-type ilvA threonine deaminase gene, the e35S-expressed, plastid-targeted (ARABSSU1A) A. eutrophus phbA (β-ketothiolase) gene, and the e35s-expressed neomycin phosphotransferase type II (NptII) gene for kanamycin resistance. […] contains two border sequences for T-DNA transfer into the plant chromosome. The right border sequence is the only border required for T-DNA transfer into the plant; however, including the left border sequence terminates T-DNA integration at that point, thereby limiting the unnecessary incorporation of “extra” DNA sequences into the plant chromosome. pMON25668 also contains the minimun sequence of ori-322 for replication and maintenance in E. coli as well as ori-V of the broad host origin RK2 for replication in Agrobacterium. […]

[2] = tested on: E. coli biosynthetic threonine deaminase; details: for Threonine Deaminase Specific Activity / % activity relative to the results with 0 mM isoleucine: 10 mM threonine; for Hill Coefficient (n) / Km: fit to Hill equation; for Km: read-out: Km Threonine
Protocol: Kinetic analysis of the wild-type and mutant threonine deaminases was performed by determining threonine turnover catalyzed by these threonine deaminases as assayed by the method of Burns (1971). Specifically, α-keto-butyrate production was monitored by coupling to L-lactic dehydrogenase (LDH)-catalyzed reduction of the α-ketoacid in the presence of NADH to form (L)-2-hydroxybutyrate and NAD+. The disappearance of NADH absorbance at 340 nm provides a measure of the threonine deaminase activity. Final reaction conditions were 100 mM KPi, pH 7.8, 0.20 mM NADH, 10 units/mL LDH (defined as LDH turnover of α-ketobutyrate, not pyruvate), and variable threonine. R. Rubrum was grown according to Brandl et al., 1989. The growth and induction of E. coli cells overexpressing the mutant and wild-type biosynthetic threonine deaminases is described above. Cell extracts of R. Rubrum and E. coli were prepared by sonicating pelleted cells (≈0.5 g from 100 ml of culture) in 2 ml of 100 mM KPi, pH 7.0, containing 5% (v/v) glycerol. After centrifugation to remove cellular debris, protein concentrations were determined by the method of Bradford (1976), and threonine deaminase activity was measured.
The kinetic parameters Km and Vmax, and the level of positive cooperativity, i.e., the deviation from normal saturation kinetics where at low substrate concentration the substrate turnover rate is less than a non-cooperative system, were determined. These values were found by fitting the rate data to the Hill equation (Equation 1), which incorporates the coefficient n into the normal Michaelis-Menten equation (n=1 for a non-cooperative system).
In addition to the kinetic parameters, the degree of inhibition of threonine deaminase by isoleucine was also measured at fixed levels of threonine.

threonine deaminase = assay: Threonine deaminase activity in extracts of transformed E. coli DH5α (in vivo analysis of cloned ilvA genes); format: biochemical; details: 0 mM isoleucine, 10 mM threonine
Description: E. coli DH5α cells were transformed with pJM9238 (Kidwell et al., 1995) containing the PHB operon of A. eutrophus by CaCl2/heat shock treatment The PHB operon was under the inducible control of the ptac promoter. E. coli containing pJM9236 were used as a background control with respect to threonine deaminase activity.
E. coli DH5α cells were also cotransformed by CaCl2/heat shock treatment with pJM9238 and pMON25660 (FIG. 5) containing the wild-type E. coli threonine deaminase, under ptrc inducible control.
In a third experiment, E. coli DH5α cells were cotransformed with pJM9238 and pMON25683 (FIG. 11) containing the mutant E. coli ilvA466 (L481F) threonine deaminase, under ptrc inducible control.
(§1) Transformed cells were grown on M9 minimal salts plus 0.2% gluconate and 25 mM L-threonine. At early log phase, the cells were induced with IPTG to induce expression of all four enzymes (i.e., PhbA, PhbB, PhbC, and IlvA or IlvA466). […] The level of α-ketobutyrate was determined by reverse-phase HPLC isolation of the dinitrophenylhydrazine derivative of the α-ketoacid according to Qureshi et al., (1982). Quantitation was based on peak integration comparisons to a standard curve.

E. coli DH5α cells = assay: Intracellular α-ketobutyrate in transformed E. coli DH5α (HPLC of dinitrophenylhydrazine derivative); format: cell-based; details: for [α-ketobutyrate]: 1 ml extract from approximately 50 mg cells, M9 + 0.2% gluconate + 25 mM L-threonine; for α-ketobutyrate level relative to cells containing no overexpressed threonine deaminase: transformed E. coli DH5α
Protocol: as §1

| Molecule | Km [1] | expression (Western blot) and enzymatic activity in transformed calli (soybean callus) | Threonine Deaminase Specific Activity ([2]; 0 mM isoleucine) | % activity relative to the results with 0 mM isoleucine ([2]; 1.0 mM isoleucine) | Threonine Deaminase Specific Activity ([2]; 1.0 mM isoleucine) | % activity relative to the results with 0 mM isoleucine ([2]; 10.0 mM isoleucine) | Threonine Deaminase Specific Activity ([2]; 10.0 mM isoleucine) | Hill Coefficient (n) [2] | Km [2] | Threonine Deaminase Specific Activity (threonine deaminase) | [α-ketobutyrate] (E. coli DH5α cells) | α-ketobutyrate level relative to cells containing no overexpressed threonine deaminase (E. coli DH5α cells) |
| --- | --- | --- | --- | --- | --- | --- | --- | --- | --- | --- | --- | --- |
| B1 | 0.053 ± 0.006 mM |  |  |  |  |  |  |  |  |  |  |  |
| B2 |  | can be expressed and maintain enzymatic activity | 16.7 u/mg | < 2% | 0.3 u/mg | < 2% | 0.3 u/mg | 1.5 ± 0.2 | 5 ± 1 mM | 4.20 u/mg | 41.8 µM | about a three-fold increase |
| B3 |  |  | 20.3 u/mg | 56% | 11.3 u/mg | < 2% | 0.3 u/mg | 1.22 ± 0.01 | 3.08 ± 0.03 mM | 0.59 u/mg | 579 µM | greater than 40 times |
